# From paper PMC3796444 (PLoS ONE, 2013)
# Numbering of substitutions follows the chain as printed. Numbers in names are those of the source.
# T1: alanine:glyoxylate aminotransferase (AGT), AGT WT (major allele) (Homo sapiens, UniProt P21549)
# T1 construct: gene AGXT; His-tagged full-length AGT from pCOLDII, expressed in E. coli BL21, IMAC and SEC; about 90 kDa dimer
# T1 sequence (P21549 1-392): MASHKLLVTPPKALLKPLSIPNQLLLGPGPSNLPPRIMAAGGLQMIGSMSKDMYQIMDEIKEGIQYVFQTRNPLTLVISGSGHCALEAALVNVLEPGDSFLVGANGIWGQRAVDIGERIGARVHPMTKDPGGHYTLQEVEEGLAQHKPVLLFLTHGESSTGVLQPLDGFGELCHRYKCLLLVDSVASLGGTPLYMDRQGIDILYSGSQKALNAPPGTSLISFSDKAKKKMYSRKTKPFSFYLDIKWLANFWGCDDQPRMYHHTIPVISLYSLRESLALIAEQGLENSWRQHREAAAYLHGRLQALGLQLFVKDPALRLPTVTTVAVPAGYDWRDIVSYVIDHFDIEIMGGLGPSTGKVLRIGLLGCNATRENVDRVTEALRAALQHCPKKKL
# B1: alanine:glyoxylate aminotransferase, wild type (major allele), recombinant His-tagged (enzyme, human)
# chain: T1 sequence (P21549 1-392)
# notes: alanine:glyoxylate aminotransferase (AGT), human, major allele; also called AGT WT; WT; source: E. coli BL21 (pCOLDII), purified (IMAC, SEC)
# B2: alanine:glyoxylate aminotransferase p.R197Q on the minor allele, recombinant His-tagged (enzyme, human, UniProt P21549 1-392, looked up)
# chain: T1 sequence (P21549 1-392) with P11L, R197Q, I340M
# notes: alanine:glyoxylate aminotransferase (AGT), human, rare variant p.R197Q in the minor allele; source: E. coli BL21 (pCOLDII), purified (IMAC, SEC)
# B3: alanine:glyoxylate aminotransferase p.P11L, recombinant His-tagged (enzyme, human, UniProt P21549 1-392, looked up)
# chain: T1 sequence (P21549 1-392) with P11L
# notes: alanine:glyoxylate aminotransferase (AGT), human, polymorphic variant p.P11L; source: E. coli BL21 (pCOLDII), purified (IMAC, SEC)
# B4: alanine:glyoxylate aminotransferase minor allele (p.P11L/I340M), recombinant His-tagged (enzyme, human, UniProt P21549 1-392, looked up)
# chain: T1 sequence (P21549 1-392) with P11L, I340M
# notes: alanine:glyoxylate aminotransferase (AGT), human, minor allele; also called AGT LM; LM; source: E. coli BL21 (pCOLDII), purified (IMAC, SEC)
# B5: alanine:glyoxylate aminotransferase p.P319L on the minor allele, recombinant His-tagged (enzyme, human, UniProt P21549 1-392, looked up)
# chain: T1 sequence (P21549 1-392) with P11L, P319L, I340M
# notes: alanine:glyoxylate aminotransferase (AGT), human, PH1 mutation p.P319L in the minor allele; source: E. coli BL21 (pCOLDII), purified (IMAC, SEC)
# B6: alanine:glyoxylate aminotransferase p.A368T on the minor allele, recombinant His-tagged (enzyme, human, UniProt P21549 1-392, looked up)
# chain: T1 sequence (P21549 1-392) with P11L, I340M, A368T
# notes: alanine:glyoxylate aminotransferase (AGT), human, PH1 mutation p.A368T in the minor allele; source: E. coli BL21 (pCOLDII), purified (IMAC, SEC)
# B7: alanine:glyoxylate aminotransferase p.F152I on the minor allele, recombinant His-tagged (enzyme, human, UniProt P21549 1-392, looked up)
# chain: T1 sequence (P21549 1-392) with P11L, F152I, I340M
# notes: alanine:glyoxylate aminotransferase (AGT), human, PH1 mutation p.F152I in the minor allele; source: E. coli BL21 (pCOLDII), purified (IMAC, SEC)
# B8: alanine:glyoxylate aminotransferase p.H83R on the minor allele, recombinant His-tagged (enzyme, human, UniProt P21549 1-392, looked up)
# chain: T1 sequence (P21549 1-392) with P11L, H83R, I340M
# notes: alanine:glyoxylate aminotransferase (AGT), human, PH1 mutation p.H83R in the minor allele; source: E. coli BL21 (pCOLDII), purified (IMAC, SEC)
# B9: alanine:glyoxylate aminotransferase p.G170R on the minor allele, recombinant His-tagged (enzyme, human, UniProt P21549 1-392, looked up)
# chain: T1 sequence (P21549 1-392) with P11L, G170R, I340M
# notes: alanine:glyoxylate aminotransferase (AGT), human, PH1 mutation p.G170R in the minor allele (p.P11L, p.G170R and p.I340M in cis); source: E. coli BL21 (pCOLDII), purified (IMAC, SEC)
# B10: alanine:glyoxylate aminotransferase p.I244T on the minor allele, recombinant His-tagged (enzyme, human, UniProt P21549 1-392, looked up)
# chain: T1 sequence (P21549 1-392) with P11L, I244T, I340M
# notes: alanine:glyoxylate aminotransferase (AGT), human, PH1 mutation p.I244T in the minor allele (p.P11L, p.I244T and p.I340M in cis); source: E. coli BL21 (pCOLDII), purified (IMAC, SEC)
# B11: alanine:glyoxylate aminotransferase p.A295T on the minor allele, recombinant His-tagged (enzyme, human, UniProt P21549 1-392, looked up)
# chain: T1 sequence (P21549 1-392) with P11L, A295T, I340M
# notes: alanine:glyoxylate aminotransferase (AGT), human, rare variant p.A295T in the minor allele; source: E. coli BL21 (pCOLDII), purified (IMAC, SEC)
# B12: alanine:glyoxylate aminotransferase p.I340M, recombinant His-tagged (enzyme, human)
# chain: MASHKLLVTPPKALLKPLSIPNQLLLGPGPSNLPPRIMAAGGLQMIGSMSKDMYQIMDEIKEGIQYVFQTRNPLTLVISGSGHCALEAALVNVLEPGDSFLVGANGIWGQRAVDIGERIGARVHPMTKDPGGHYTLQEVEEGLAQHKPVLLFLTHGESSTGVLQPLDGFGELCHRYKCLLLVDSVASLGGTPLYMDRQGIDILYSGSQKALNAPPGTSLISFSDKAKKKMYSRKTKPFSFYLDIKWLANFWGCDDQPRMYHHTIPVISLYSLRESLALIAEQGLENSWRQHREAAAYLHGRLQALGLQLFVKDPALRLPTVTTVAVPAGYDWRDIVSYVMDHFDIEIMGGLGPSTGKVLRIGLLGCNATRENVDRVTEALRAAL
# notes: alanine:glyoxylate aminotransferase (AGT), human, polymorphic variant p.I340M; Crystallised here (PDB 2YOB); source: E. coli BL21 (pCOLDII), purified (IMAC, SEC)
# Biological target: T1, alanine:glyoxylate aminotransferase (AGT), AGT WT (major allele)
# Assay: filtration ([…] kDa cut-off) and UV absorption of released PMP
# Assay type: binding
# Settings: holo-enzyme 36 µM monomer with L-Ala, 1 h, 25°C
row,% PMP released,Molecule
1,~ 3%,Cc1ncc(COP(=O)(O)O)c(CN)c1O [PMP]

# Biological target: Hsc70 chaperones of the rabbit reticulocyte lysate (rabbit (endogenous in rabbit reticulocyte lysate))
# Assay: co-IP; AGT variants made with 35S-Met in rabbit reticulocyte lysate (TnT) at 30°C for 2 h, stopped with cycloheximide; immunoprecipitation with anti-Hsc70 antibodies; SDS-PAGE and fluorography
# Settings: not given
row,fold increase in immunoprecipitated AGT compared to WT,Molecule
1,4 fold,"alanine:glyoxylate aminotransferase minor allele (p.P11L/I340M), made in a cell-free system (from UniProt P21549 1-392) (enzyme)"
2,4.8 fold,"alanine:glyoxylate aminotransferase p.H83R on the minor allele, made in a cell-free system (from UniProt P21549 1-392) (enzyme)"
3,4 fold,"alanine:glyoxylate aminotransferase p.P11L, made in a cell-free system (from UniProt P21549 1-392) (enzyme)"
4,7 fold,"alanine:glyoxylate aminotransferase p.P319L on the minor allele, made in a cell-free system (from UniProt P21549 1-392) (enzyme)"

# Biological target: the molecule itself
# Assay: SEC; purified recombinant AGT variants; single peak, elution volume of a ≈90 kDa dimer; data not shown
# Settings: not given
row,Molecule,stoichiometry N
1,B1,2
2,B2,2
3,B3,2
4,B4,2
5,B5,2
6,B6,2
7,B7,2
8,B8,2
9,B9,2
10,B10,2
11,B11,2
12,B12,2

# Substrate: O=CC(=O)O
# Assay: LDH-coupled pyruvate assay, global double-displacement fit
# Assay type: biochemical, Homo sapiens
# Settings: L-alanine 0-100 mM, 150 µM PLP, 0.1 M Na-phosphate pH 8, 25°C
# Description: (§1) LDH-coupled pyruvate assay, global double-displacement fit on alanine:glyoxylate aminotransferase (AGT), AGT WT (major allele)
row,Molecule,Km
1,B1,0.245 ± 0.029 mM
2,B8,0.156 ± 0.019 mM

# Substrate: C[C@H](N)C(=O)O
# Assay: as above
# Assay type: biochemical, Homo sapiens
# Settings: glyoxylate 0-5 mM, 150 µM PLP, 0.1 M Na-phosphate pH 8, 25°C
# Description: as §1
row,Molecule,Km
1,B1,19.5 ± 1.4 mM
2,B4,19.8 ± 1.5 mM
3,B8,42.4 ± 2.4 mM
